The target of the test is 8H9 antigen (human) (UniProt Q5ZPR3). Kind of test: cell-based or functional assay.
Chain of UniProt Q5ZPR3 (Q5ZPR3 29-534): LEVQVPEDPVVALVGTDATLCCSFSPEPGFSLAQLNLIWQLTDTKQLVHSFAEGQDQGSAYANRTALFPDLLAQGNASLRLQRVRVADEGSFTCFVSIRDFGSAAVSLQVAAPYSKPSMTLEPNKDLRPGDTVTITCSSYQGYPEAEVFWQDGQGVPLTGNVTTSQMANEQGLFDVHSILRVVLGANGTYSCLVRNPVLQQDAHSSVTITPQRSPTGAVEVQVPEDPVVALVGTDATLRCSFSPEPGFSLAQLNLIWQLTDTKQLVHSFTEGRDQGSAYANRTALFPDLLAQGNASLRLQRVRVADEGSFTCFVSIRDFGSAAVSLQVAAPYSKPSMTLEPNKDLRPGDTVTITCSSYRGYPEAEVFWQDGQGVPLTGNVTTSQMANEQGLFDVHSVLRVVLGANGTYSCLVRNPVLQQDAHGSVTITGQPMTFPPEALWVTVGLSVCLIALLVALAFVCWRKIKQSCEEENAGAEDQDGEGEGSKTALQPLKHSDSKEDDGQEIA

Turning to 8H9(scFv)-PE38, the IC50 of 8H9(Fv)-PE38 (ng/ml) on BT-474 cells stood at 20 ng/mL, the IC50 of 8H9(Fv)-PE38 (ng/ml) on CRL1427 (MG63) cells worked out at 50 ng/mL, the IC50 of 8H9(Fv)-PE38 (ng/ml) on LAN-1 cells is 12.5 ng/mL and the IC50 of 8H9(Fv)-PE38 (ng/ml) on MCF-7 cells is 5 ng/mL. This substance also gave an IC50 of 8H9(Fv)-PE38 (ng/ml) on NMB-7 cells of 9 ng/mL, an IC50 of 8H9(Fv)-PE38 (ng/ml) on OHS-M1 cells of 20 ng/mL, an IC50 of 8H9(Fv)-PE38 (ng/ml) on SK-N-BE(2) cells of 90 ng/mL and an IC50 of 8H9(Fv)-PE38 (ng/ml) on U2OS cells of 30 ng/mL. This substance also yielded an IC50 of 8H9(Fv)-PE38 (ng/ml) on ZR-75-1 cells of 35 ng/mL.

The record behind these values is US20060051359A1.
